Test results published in article PMC7554688, “Blocking of the IL-33/ST2 Signaling Axis by a Single-Chain Antibody Variable Fragment (scFv) Specific to IL-33 with a Defined Epitope” (International Journal of Molecular Sciences, 2020).

T1: ST2-Fc fusion protein (ectodomain of ST2, residues 19-321, and Fc from human IgG) (UniProt Q01638 19-321)
T1 construct: Suppressor of tumorigenicity 2 (ST2) / interleukin 1 receptor-like 1 (IL1RL1), ectodomain, residues 19-321; Synthesised gene in the pSF vector; also called sST2; IL1RL1; source: Expi293F, transfected, purified from supernatant (protein A agarose)
T1 sequence (looked up): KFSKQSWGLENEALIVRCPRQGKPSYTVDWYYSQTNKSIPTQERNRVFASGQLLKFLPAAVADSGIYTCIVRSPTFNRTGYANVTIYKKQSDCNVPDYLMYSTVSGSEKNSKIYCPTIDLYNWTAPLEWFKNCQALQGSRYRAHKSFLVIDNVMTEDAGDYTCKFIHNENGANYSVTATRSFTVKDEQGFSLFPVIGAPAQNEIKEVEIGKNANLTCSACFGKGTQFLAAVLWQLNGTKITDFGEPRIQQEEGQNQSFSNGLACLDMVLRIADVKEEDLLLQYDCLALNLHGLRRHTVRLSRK

B1: C2_2E1 (scFv, V domains shown)
VH: EVQLLESGGGLVQPGGSLRLSCAASGFTFSSYYMSWVRQAPGRGLEWVSAISPGSSNKYYADSVKGRFTISRDNSKNTLYLQMNSLRAEDTAVYYCARMTSSFDYWGQGTLVTVSS
VL: QSVLTQPPSASGTPGQRVTISCSGSSSNIGNNDVSWYQQLPGTAPKLLIYSDSQRPSGVPDRFSGSKSGTSASLAISGLRSEDEADYYCGSWDYSLSAYVFGGGTKLTVL
notes: selected from a synthetic human scFv library by phage display; also called anti-IL-33 scFv clone C2_2E1; source: E. coli BL21 (DE3), in cell lysate; purified (Ni-NTA, SEC)
B2: C2_2E12 (scFv, V domains shown)
VH: EVQLLESGGGLVQPGGSLRLSCAASGFTFSSYYMSWVRQAPGKGLEWVSAISPGSSNKYYADSVKGRFTISRDNSKNTLYLQMNSLRAEDTAVYYCARLTLSFDYWGQGTPVTVSS
VL: QSVLTQPPSASGTPGQRVTISCSGSSSNIGSNDVSWYQQLPGTAPKLLIYADSKRPSGVPDRFSGSKSGTSASLAISGLRSEDEADYYCASWDSSLSAYVFGGGTKLTVL
notes: selected from a synthetic human scFv library by phage display; Fab and IgG formats were made but no result is told for them; also called anti-IL-33 scFv clone C2_2E12; C2_2E12 antibody; source: E. coli BL21 (DE3), in cell lysate and purified (Ni-NTA, SEC); scFv also expressed in Expi293F, purified (Ni-NTA, SEC)
B3: C2_2H5 (scFv, V domains shown)
VH: EVQLLESGGGLVQPGGSLRLSCAASGFTFSSYYMSWVRQAPGKGLEWVSAISPGSSNKYYADSVKGQFTISRDNSKNTLYLQMNSLRAEDTAVYYCAKLSQSFDYWGQGTLVTVSS
VL: QSVLTQPPSASGTPGQRVTISCTGSSSNIGNNGISWYQQLPGTAPKLLIYDNSHRPSGVPDRFSGSKSGTSASLAISGLRSEDETDYYCASWDSSLSGYVFGGGTKLTVL
notes: selected from a synthetic human scFv library by phage display; also called anti-IL-33 scFv clone C2_2H5; source: E. coli BL21 (DE3), in cell lysate; purified (Ni-NTA, SEC)
B4: GST-IL-33 (mature form of interleukin 33, residues 112-270) (domain or fragment, human, UniProt O95760 112-270, looked up)
chain: SITGISPITEYLASLSTYNDQSITFALEDESYEIYVEDLKKDEKKDKVLLSYYESQHPSNESGDGVDGKMLMVTLSPTKDFWLHANNKEHSVELHKCEKPLPDQAFFVLHNMHSNCVSFECKTDPGVFIGVKDNHLALIKVDSSENLCTENILFKLSET
notes: Interleukin-33, human, mature form / IL-1-like cytokine domain, residues 112-270; Synthesised gene in the parallel GST-2 vector; also called GST-IL-33 WT; GST-IL-33_(112)-270; source: E. coli BL21 (DE3), purified (Glutathione Sepharose 4B); not shown: GST, N-terminal, kept
B5: C1_1E1 (scFv, V domains shown)
VH: EVQLLESGGGLVQPGGSLRLSCAASGFTFSSYYMSWVRQAPGKGLEWVSAISPGSSNKYYADSVKGRFTISRDNSKNTLYLQMNSLRAEDTAVYYCAKLTSAFDYWGQGTLVTVSS
VL: QSVLTQPPSASGTPGQRVTISCTGSSSNIGSNDVTWYQQLPGTAPKLLIYSDNKRPSGVPDRFSGSKSGTSASLAISGLRSEEEADYYCGAWDSSLSGYVFGGGTKLTVL
notes: selected from a synthetic human scFv library by phage display; also called anti-IL-33 scFv clone C1_1E1; source: E. coli BL21 (DE3), in cell lysate; purified (Ni-NTA, SEC)
B6: C2_1D5 (scFv, V domains shown)
VH: EVQLLESGGGLVQPGGSLRLSCAASGFTFSSYYMSWVRQAPGKGLEWVSAISPGSSNKYYADSVKGRFTISRDNSKNTLYLQMNSLRAEDTAVYYCARLLSAFDYWGQGTLVTVSS
VL: QSVLTQPPSASGTPGQRVTISCSGSSSNIGSNDVSWYQQLPGTAPKLLIYSDSNRPSGVPDRFSGSKSGTSASLAISGLRSEDEADYYCGAWDSSLSGYVFGGGTKLTVL
notes: selected from a synthetic human scFv library by phage display; also called anti-IL-33 scFv clone C2_1D5; source: E. coli BL21 (DE3), in cell lysate; purified (Ni-NTA, SEC)
B7: C2_2A10 (scFv, V domains shown)
VH: EVQLLESGGGLVQPGGSLRLSCAASGFTFSSYYMSWVRQAPGKGLEWVSAISPGSSNKYYADSVKGRFTISRDNSKNTLYLQMNSLGAEDTAVYYCAKLLTGFDYWGQGTLVTVSS
VL: QSVLTQPPSASGTPGQRVTISCSGSSSNIGNNAVSWYQQLPGTAPKLLIYDDNHRPSGVPDRFSGSKSGTSASLAISGLRSEDEADYYCGTWDSSLSAYVFGGGTKLTVL
notes: selected from a synthetic human scFv library by phage display; also called anti-IL-33 scFv clone C2_2A10; source: E. coli BL21 (DE3), in cell lysate; purified (Ni-NTA, SEC)

Key:
[1] = target: T2, GST-IL-33 (mature form of interleukin 33, residues 112-270) (human, UniProt O95760); assay: ELISA; E. coli cell lysates containing overexpressed His6-tagged scFvs against GST-IL-33; the text says ELISA, the legend 'kinetic analysis'; the methods tell of lysates only for BLI (BLItz; lysate scFv on Ni-NTA biosensors, GST-IL-33 at 2, 1, 0.5 and 0.25 uM, Kd = koff/kon); details: one partner purified
T2 construct: Interleukin-33, human, mature form / IL-1-like cytokine domain, residues 112-270; Synthesised gene in the parallel GST-2 vector; also called GST-IL-33 WT; GST-IL-33_(112)-270; source: E. coli BL21 (DE3), purified (Glutathione Sepharose 4B); not shown: GST, N-terminal, kept

[2] = target: T2, GST-IL-33 (mature form of interleukin …); assay: ELISA; GST-IL-33 coated on the plate; serial dilutions of purified scFv (about 8 ng/mL to 0.8 mg/mL), ambient temperature 1 h, PBST; anti-HA-HRP detection, OD450; repeated three times; details: both partners purified
[3] = target: T2, GST-IL-33 (mature form of interleukin …); assay: pull-down; 4 uM GST-IL-33 on Glutathione Sepharose 4B, then 4 uM ST2-Fc, then C2_2E12 (0.4, 4, 40, 400 uM), 30 min at 4 C each step; 50 mM Tris-HCl pH 7.5, 150 mM NaCl; immunoblot (anti-ST2, anti-GST, anti-His6), bands quantified with ImageJ; details: both partners purified
[4] = target: T1, ST2-Fc fusion protein (ectodomain of …); assay: as above; details: both partners purified

Row | Binder | Kd [1] [nM] | also measured
1 | B1 | 35 | 
2 | B2 | 28 | Kd [2]: 38 nM; IL-33:ST2 interaction left at 100-fold molar excess of C2_2E12 (ST2-Fc band relative to that with 0.4 uM C2_2E12) [3]: ~40%
3 | B3 | 31 | 
4 | B4 |  | binding result [4]: binds
5 | B5 | 48 | 
6 | B6 | 36 | 
7 | B7 | 57 | 
